Tested on: MS2 coat protein
Test: apparent KD of MS2 coat protein; designed switch direction (-1 OFF switch, 1 ON switch): 1; higher = weaker reporter binding
Outline: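 Three titration conditions were used: no input, 200 uM small-molecule ligand, and an oligonucleotide input. In each, SNAP-549-labelled MS2 coat protein was raised from 0.7 or 1.5 nM, doubling, to 3 µM over designed RNA switches transcribed on Illumina chips by stalled E. coli RNA polymerase. Curve fits of normalised cluster fluorescence gave values whose per-design median over clusters is the apparent KD.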

[1] = input ligand: microRNA oligo, concentration not stated
[2] = Eterna round: R95, input ligand: FMN 200 uM
[3] = Eterna round: R95, input ligand: microRNA oligo, concentration not stated
[4] = Eterna round: R95, input ligand: none

## AGAUAAGUCACAGGAUAUUCCUACAUUAAUAUGGAAGAAGGGUGAGCAUGAUUCGAUACAUGAGGAUCACCCAUGUAUCCGCGA [Eternabot solution 31] (Eterna round: R96, puzzle: Same State NG 1)
[1]
  apparent KD of MS2 coat protein: 54 nM

## GCGGAACCUGACAUGAGGAUCACCCAUGUUCCGGAAACGGCACAGGAUAUCUGUCCGAAAAGGUCAGAGAAGGGUGGAAACCGC [Fiskers NG3ss - 98] (Eterna round: R96, puzzle: Same State NG 3)
Input ligand: FMN 200 uM
  apparent KD of MS2 coat protein: 68 nM
[1]
  apparent KD of MS2 coat protein: 179 nM
Input ligand: none
  apparent KD of MS2 coat protein: 193 nM

## GCGCAAUGAUGUGACAUGAGGAUCACCCAUGUAACCUCAUGUAAGGAUAUCGGGAAAAAAAAAACCGAGAAGGUAUGGUCACGC [AK SSNG3-V2-27.2] (Eterna round: R96, puzzle: Same State NG 3)
Input ligand: FMN 200 uM
  apparent KD of MS2 coat protein: 145 nM
[1]
  apparent KD of MS2 coat protein: 61.4 nM
Input ligand: none
  apparent KD of MS2 coat protein: 138 nM

## GGAGCCGACACUGAGGAUAUUCAUAUUAAAACAUGAGGAUCACCCAUGUAGGCCAGAAGGCCUUGGGAGAAGGCAGGUCGGCCCG [Bibimoar - 2] (puzzle: Same State 2)
[2]
  apparent KD of MS2 coat protein: 15.9 nM
[3]
  apparent KD of MS2 coat protein: 331 nM
[4]
  apparent KD of MS2 coat protein: 294 nM

## UUACUCAUGUAAGGAUAUGCAGCCGAAACGGCUGCAGAAGGUACUAUAAUACAUGAGGAUCACCCAUGUCUCUAUUAUAAAGUU [Mat - Same State NG 1 - JL mod - D95] (Eterna round: R96, puzzle: Same State NG 1)
Input ligand: FMN 200 uM
  apparent KD of MS2 coat protein: 94.8 nM
[1]
  apparent KD of MS2 coat protein: 43.4 nM
Input ligand: none
  apparent KD of MS2 coat protein: 49.5 nM

## GAGUGGAGGAAAGGAUAUACAAUGAUAAUCACAGUAGAAGGUUCUAACAUGAGGAUCACCCAUGUAGGACUAUACCAGAGAGGG [Parity 46 - Jieux - Same State NG 1] (Eterna round: R96, puzzle: Same State NG 1)
[1]
  apparent KD of MS2 coat protein: 11.4 nM

## UGUUGUAUUACAGGAUAUCUAUUGUUUUUAUUUAGAGAAGGGUAUUCACAUGAGGAUCACCCAUGUAUAUACGAGGAAGUUGUG [JMF's solution 12] (Eterna round: R96, puzzle: Same State NG 1)
[1]
  apparent KD of MS2 coat protein: 40.6 nM

## GCUCGAUGAGCUGUUUACAUGAGGAUCACCCAUGUAGAUGCGGAGGAUAUCUACGUGCUUUAUGUAGAGAAGGCCGUAUCGAGC [SameState NG3 #81] (Eterna round: R96, puzzle: Same State NG 3)
Input ligand: FMN 200 uM
  apparent KD of MS2 coat protein: 14.2 nM
[1]
  apparent KD of MS2 coat protein: 22.2 nM
Input ligand: none
  apparent KD of MS2 coat protein: 28.4 nM

## GGUAGGUUACUACCAAACUACAUGAGGAUCACCCAUGUGUGGAAGGAUAUGGUACCUAUUUGGUACCAGAAGGUCCAAUUAAUU [Fiskers NG3ss - 5] (Eterna round: R96, puzzle: Same State NG 3)
Input ligand: FMN 200 uM
  apparent KD of MS2 coat protein: 125 nM
[1]
  apparent KD of MS2 coat protein: 108 nM
Input ligand: none
  apparent KD of MS2 coat protein: 122 nM

## ACGCCUAAACGGCGAAAACGACAUGAGGAUCACCCAUGUACACAGGAUAUCAGCCUGCAACAGGCUGAGAAGGGUGAACCUAAA [Atatmadiar] (Eterna round: R96, puzzle: Same State NG 3)
Input ligand: FMN 200 uM
  apparent KD of MS2 coat protein: 711 nM
[1]
  apparent KD of MS2 coat protein: 35.5 nM
Input ligand: none
  apparent KD of MS2 coat protein: 155 nM

## ACAUGAGAAAGAGGAUAUUUUGUACCUACAUGUGACAUGAGGAUCACCCAUGUGGUAAGUAUGAGAAAGAAGGCUUAGAUAUGU [Equivalence 13 - Jieux - Same State NG 2] (Eterna round: R96, puzzle: Same State NG 2)
Input ligand: FMN 200 uM
  apparent KD of MS2 coat protein: 20.6 nM
[1]
  apparent KD of MS2 coat protein: 43.1 nM
Input ligand: none
  apparent KD of MS2 coat protein: 61.7 nM

## GGACGUCACUCAAACAAUUAAACAUGAGGAUCACCCAUGUCACAGGAUAUGGAUCCUAAUUGGAUCCAGAAGGGUGAGACGUCC [Fiskers NG3ss - 41] (Eterna round: R96, puzzle: Same State NG 3)
[1]
  apparent KD of MS2 coat protein: 193 nM

## AAGAAAGACGCAGGAUAUCAGCGCAAAACACGCUGAGAAGGGUGAGACAUGAGGAUCACCCAUGUAACACGGCAAAACGCCGUG [Atinanor] (Eterna round: R96, puzzle: Same State NG 1)
Input ligand: FMN 200 uM
  apparent KD of MS2 coat protein: 2190 nM
[1]
  apparent KD of MS2 coat protein: 122 nM
Input ligand: none
  apparent KD of MS2 coat protein: 1310 nM

## AGAGAAGAAGCUGAGGAUAUCGUAAGGAGGACAUGAGGAUCACCCAUGUGUGUGGAAUUGGAGGACGAGAAGGCAGAGGAGUGGG [JR_SS2_Sub056] (puzzle: Same State 2)
[2]
  apparent KD of MS2 coat protein: 25.1 nM
[3]
  apparent KD of MS2 coat protein: 28.3 nM
[4]
  apparent KD of MS2 coat protein: 27.8 nM

## GGAAACAGAGGAGGAUAUGCAGAGGAUCACCCUGUAGAAGGCCUCGAAAGGAGGAUAUGCAGAGGAUCACCCUGUAGAAGGCCU [pwkr ssNG DX.26] (Eterna round: R96, puzzle: Same State NG 1)
Input ligand: FMN 200 uM
  apparent KD of MS2 coat protein: 72.1 nM
[1]
  apparent KD of MS2 coat protein: 156 nM
Input ligand: none
  apparent KD of MS2 coat protein: 208 nM

## GUGGUCAGACAUGAGGAUCACCCAUGUGGAAUAAAUAAGGAGAAGGAUAUUCAAUAUAGGAUAUAGAAGAAGGUCUGGUUGGUG (Eterna round: R96, puzzle: Same State NG 3)
[1]
  apparent KD of MS2 coat protein: 63.7 nM

## AGAUCAUGACGAGGAUAUGGUACAUGAGGAUCACCCAUGUAUGUACCAUAAUUAGUAUUAGGAAACCAGAAGGCGUCGUGGUCA [JL SSNG2 1.18] (Eterna round: R96, puzzle: Same State NG 2)
Input ligand: FMN 200 uM
  apparent KD of MS2 coat protein: 10.1 nM
[1]
  apparent KD of MS2 coat protein: 55.7 nM
Input ligand: none
  apparent KD of MS2 coat protein: 85.4 nM

## CCCAGCGUUACAGGAUAUGGUGAGGAUCACCCACUAGAAGGGUAAACAUGUGCGUCGGACAUGAGGAUCACCCAUGUAGGGCGU (Eterna round: R96, puzzle: Same State NG 1)
Input ligand: FMN 200 uM
  apparent KD of MS2 coat protein: 20.6 nM
[1]
  apparent KD of MS2 coat protein: 17.9 nM
Input ligand: none
  apparent KD of MS2 coat protein: 27 nM

## UUGCGGAAUUAAGGAUAUUGAGUACAUAUGUUUAACAUGAGGAUCACCCAUGUGGGUUGCGGUAUCGAGAAGGUAAAUUACUAC [salish99_SSNG2_r04_802] (Eterna round: R96, puzzle: Same State NG 2)
Input ligand: FMN 200 uM
  apparent KD of MS2 coat protein: 130 nM
[1]
  apparent KD of MS2 coat protein: 88.8 nM
Input ligand: none
  apparent KD of MS2 coat protein: 105 nM

## UAUGACUUACAAGGAUAUUAAUAACAUGAGGAUCACCCAUGUGGCUGUGUGUGUUAGAUAAGCUAUAAGAAGGUGUGUGUGUUU [JR_SSNG2_Sub095] (Eterna round: R96, puzzle: Same State NG 2)
Input ligand: FMN 200 uM
  apparent KD of MS2 coat protein: 66.2 nM
[1]
  apparent KD of MS2 coat protein: 244 nM
Input ligand: none
  apparent KD of MS2 coat protein: 223 nM

## GUAGCAUACCGAGGAUAUUCAUAUUAUAAACAUGAGGAUCACCCAUGUGGUCGAUUACGACCUUGGGAGAAGGCGGAAUGCUAC [Xeonanis - 20 Mod36] (Eterna round: R96, puzzle: Same State NG 2)
Input ligand: FMN 200 uM
  apparent KD of MS2 coat protein: 46.4 nM
[1]
  apparent KD of MS2 coat protein: 462 nM
Input ligand: none
  apparent KD of MS2 coat protein: 725 nM

## AAUUAACAUGAGGAUCACCCAUGUCGUAUUAUGGGAGGAUAUACGUGGACCGUAGUCCGCGUAGAAGGCCUAAUUA [Mat - Same State 1 - Mod of JL - D21] (puzzle: Same State 1)
[3]
  apparent KD of MS2 coat protein: 34.6 nM

## CCGGUUAAUGGAGGAUAUGGAGCCUUAUUGGCUCCAGAAGGCUAACAUGAGGAUCACCCAUGUUUACCGGCGGUCAAUAGACCG [Eli NG1ss - 62] (Eterna round: R96, puzzle: Same State NG 1)
Input ligand: FMN 200 uM
  apparent KD of MS2 coat protein: 11 nM
[1]
  apparent KD of MS2 coat protein: 11 nM
Input ligand: none
  apparent KD of MS2 coat protein: 18.8 nM

## UACAAUCUAUCUGAGGAUAUCAUGAAAAAAACAUGAGGAUCACCCAUGUGCAGGAAAACUGCAUAUGAGAAGGCAGAUAGAUUGU [salish99_SS2_r3_006] (puzzle: Same State 2)
[2]
  apparent KD of MS2 coat protein: 32.4 nM
[3]
  apparent KD of MS2 coat protein: 971 nM
[4]
  apparent KD of MS2 coat protein: 1650 nM

## AUUGCUAUCACAGGAUAUCAUGCGAAAAUUGCGUGAGAAGGGUGGACUCUGUCAUUCACGGAGGACAUGAGGAUCACCCAUGUC [SameState NG1 #81] (Eterna round: R96, puzzle: Same State NG 1)
Input ligand: FMN 200 uM
  apparent KD of MS2 coat protein: 1020 nM
[1]
  apparent KD of MS2 coat protein: 15.5 nM
Input ligand: none
  apparent KD of MS2 coat protein: 32.3 nM

## UGGAUCUAGGCUUGCCUGGGUCCUUGUUGACAUGAGGAUCACCCAUGUGUUUUUUUUUUGCUUUUUGUUUGUCAACA [JL A Humble Attempt mod 1] (puzzle: Sensor for hsa-mir-208a)
[2]
  apparent KD of MS2 coat protein: 20.8 nM
[3]
  apparent KD of MS2 coat protein: 13.6 nM
[4]
  apparent KD of MS2 coat protein: 26.1 nM

## GAGUGGUAAAGAGGAUAUGCAUUGUUAUUCACUGCAGAAGGUUUUAACAUGAGGAUCACCCAUGUAGGACUAUUCCUGUGUUUC [Parity 64 - Jieux - Same State NG 1] (Eterna round: R96, puzzle: Same State NG 1)
[1]
  apparent KD of MS2 coat protein: 10.3 nM

## GUAAAGAAUUAAGGAUAUUGAUUACAUAUGUUUAACAUGAGGAUCACCCAUGUGGGUUGCGGUAUCGAGAAGGUAAAAUAAUAG [Mat - same State NG 2 - JL mod - D86] (Eterna round: R96, puzzle: Same State NG 2)
Input ligand: FMN 200 uM
  apparent KD of MS2 coat protein: 190 nM
[1]
  apparent KD of MS2 coat protein: 131 nM
Input ligand: none
  apparent KD of MS2 coat protein: 174 nM

## GUGGUCAGACAUGAGGAUCACCCAUGUGGAAUAAAUAACAGACAGGAUAUCGAAUAUAGGAUAUAUGAGAAGGGUCGAUUGGUG (Eterna round: R96, puzzle: Same State NG 3)
Input ligand: FMN 200 uM
  apparent KD of MS2 coat protein: 63.4 nM
[1]
  apparent KD of MS2 coat protein: 63 nM
Input ligand: none
  apparent KD of MS2 coat protein: 90.7 nM

## GGUCCGGCCUGAGCUGGACCGAGGCAUGUACAUGAGGAUCACCCAUGUUCAUGUGCAGGCUUUUUGCUCGUCUUGUG [JL-shm-2.06 JL mod] (puzzle: Sensor for hsa-mir-208a)
[2]
  apparent KD of MS2 coat protein: 49.6 nM
[3]
  apparent KD of MS2 coat protein: 11 nM
[4]
  apparent KD of MS2 coat protein: 50.6 nM

## AGGCUCAGACGAGGAUAUAUGUGAUCACAUGAGGAUCACCCAUGUCUCGAGCUUCGGCUCGAGACAUAGAAGGUGUCUGAGCCA [SSNG2/3-C1] (Eterna round: R96, puzzle: Same State NG 2)
Input ligand: FMN 200 uM
  apparent KD of MS2 coat protein: 76.4 nM
[1]
  apparent KD of MS2 coat protein: 3.03 nM
Input ligand: none
  apparent KD of MS2 coat protein: 32.3 nM
